Common to all, as to assay: native gel or EMSA; blue-native PAGE of the trimer-size SEC fractions (Superdex 200 Increase, TBS) after antibody affinity purification
Test [1] has as its target 327c SOSIP.664 trimer (HIV-1 isolate 327c (subtype C)).
In test [2] the target is B41 SOSIP.664 trimer (HIV-1 isolate B41 (subtype B)).
Test [3] deals with CRF02_AG_250 SOSIP.664 trimer (HIV-1 isolate CRF02_AG_250 (subtype AG)).
Test [4] concerns the target SIV trimer SIVcpzMT145 SOSIP.664 (simian immunodeficiency virus SIVcpzMT145).

Results on four substances are retold here after article PMC5379070.

By stoichiometry N is commonly meant the number of molecules, sites or subunits per partner or assembly.

For 327c SOSIP.664 trimer (complex), the stoichiometry N in test [1] was determined as 3.
In the case of B41 SOSIP.664 trimer (complex), the stoichiometry N in test [2] was found to be 3.
The substance CRF02_AG_250 SOSIP.664 trimer (complex) had a stoichiometry N in test [3] of 3.
For “SIV trimer SIVcpzMT145 SOSIP.664 (complex)”, the stoichiometry N in test [4] was 3.
